Data published in PMC5957299.

Columns and labels:
[1] = anti-FLAG IP/blot of media, TM 2 μg/ml 12 h; conditions: glycan lost; control: same construct, untreated
[2] = FVIII antigen ELISA, 293T cell extracts; conditions: control: WT full-length FVIII
[3] = Coatest SP4 chromogenic assay, 293T media; conditions: control: WT full-length FVIII
[4] = FVIII antigen ELISA, 293T conditioned media; conditions: control: WT full-length FVIII
[5] = chromogenic activity / ELISA antigen ratio in media; conditions: control: WT full-length FVIII
[6] = anti-FLAG IP/blot of 293T conditioned media; conditions: glycan lost

In the case of “Coagulation factor VIII (FVIII): TM, A469S A2 domain”, the expression_or_secretion [1] was “increases”.

With Coagulation factor VIII (FVIII): W2062S the “expression_or_secretion, percent_of_wt” value ([2]; glycan gained) was “no change”, the “other: cofactor (coagulant) activity in conditioned media, percent_of_wt” value (from here on “other: cofactor … percent_of_wt”) ([3]; glycan gained) was “decreases” and the “expression_or_secretion, percent_of_wt” value ([4]; glycan gained) was “no change”. The “other: relative (specific) cofactor activity, percent_of_wt” value ([5]; glycan gained) was “decreases”.

For “Coagulation factor VIII (FVIII): TM, I566T A2 domain”, the expression_or_secretion [1] was “decreases”.

In the case of Coagulation factor VIII (FVIII): N2118Q, the “expression_or_secretion, percent_of_wt” value ([2]; glycan lost) was “no change”, the “other: cofactor … percent_of_wt” value ([3]; glycan lost) was “no change” and the “expression_or_secretion, percent_of_wt” value ([4]; glycan lost) was “no change”. For the same substance, the expression_or_secretion ([6]; control: WT C domain) was “decreases” and the “other: relative (specific) cofactor activity, percent_of_wt” value ([5]; glycan lost) was “no change”.

With Coagulation factor VIII (FVIII): D2131N the “expression_or_secretion, percent_of_wt” value ([2]; glycan gained) was “no change”, the “other: cofactor … percent_of_wt” value ([3]; glycan gained) was “decreases” and the “expression_or_secretion, percent_of_wt” value ([4]; glycan gained) was “no change”. For the same substance, the “other: relative (specific) cofactor activity, percent_of_wt” value ([5]; glycan gained) was “decreases”.

In the case of “Coagulation factor VIII (FVIII): N2118Q + D2131N”, the expression_or_secretion ([6]; control: D2131N C domain) was “abolishes”.

For “Coagulation factor VIII (FVIII): TM, G701S A2 domain”, the expression_or_secretion [1] was “decreases”.

In the case of “Coagulation factor VIII (FVIII): TM, A469T A2 domain”, the expression_or_secretion [1] was “increases”.

In the case of “Coagulation factor VIII (FVIII): TM, M614T A2 domain”, the expression_or_secretion [1] was “no change”.

For “Coagulation factor VIII (FVIII): TM, WT C domain”, the expression_or_secretion [1] was “decreases”.
